Source: patent publication US20210275590A1 (LEGEND BIOTECH IRELAND, published 2021)

B1: AS50502 sdAb (VHH)
VHH: EVQLVESGGGSVQAGGSLRLSCAAPGYTYCTYDMMWYRQALGKEREFVSAVYTDGSTLYADSVKGRFTISQDNAKNTLYLQMNSLKPEDTAMYYCKTETAVTYDKPCDFWGQGTQVTVSS
notes: Camel sdAb
B2: AS49175 sdAb (VHH)
VHH: EVQLAESGGGLVQAGGSLRLSCTASGFTFDDYVMGWFRQAPGKEREGVSCISWSGDTTYYADSVKGRFTASRDNAKNTLYLQMNSLKPEDTAMYYCAADQGKCSLASAEPDDMDYWGRGTLVTVSS
notes: Camel sdAb
B3: AS50073 sdAb (VHH)
VHH: QVQLVESGGGLVQAGGSLRLSCTASGFTFDNYVMGWFRQAPGKEREGVSCIGWSGGSTYYADSVKGRFTISRDNAKNTLYLQMNSLKPEDTAMYYCAADQGKCSLGSAGADDMDYWGRGTLVTVSS
notes: Camel sdAb
B4: AS58930 sdAb (VHH)
VHH: AVQLVESGGGLVQAGGSLRLSCTASGSILRTYEMGWYRQAPGSQRELVASITSDGDTNYVDSVKGRFTISRDNGKNMVYLQMNSLKPDDTAVYYCNAVILSPSYSMRTSHWGQGTQVTVSS
notes: Camel sdAb; also called AS58930C
B5: AS66873 sdAb (VHH)
VHH: QVQLVESGGGLVQPGGSLRLSCAASGSIFSITAMGWYRQAPGKQRELVATVTSGGSTKYVESVKGRFTISNDNAKNTVYLQMNSLKPEDTAVYYCWADIVARWNSDYNVYDDYWGQGTQVTVSS
notes: Camel sdAb
B6: AS49873 sdAb (VHH)
VHH: EVQLVESGGGSVQAGGSLRLSCVASGYTYGINCMGWFRQAPGKEREGIAAISTGGGTTGVADSVKGRFTISQDNAKNTVYLQMNSLKPEDTAMYYCAARSTYSGYACVYSEVNGYNYRGQGTQVTVSS
notes: Camel sdAb
B7: AS67147 sdAb (VHH)
VHH: EVQLVESGGGLVQAGGSLRLSCAASGDTFSFAAMGWYRQAPGKQRELVASISFSGGESTVYANSVRGRFTISGDNAKNRVSLEMNNLKPEDTAVYYCTAKRGPYLPGPEYWGQGTQVTVSS
notes: Camel sdAb
B8: AS60399 sdAb (VHH)
VHH: QVKLEESGGGLVQEGGSLRLSCAASGTIYTDSTIYWYRQAPGKQRELVASITRGGDTKYVDSVKGRFAISSDNAKNTVYLQMNSLKPEDTAVYYCNLYYRTGPSSYYRNDWGQGTQVTVSS
notes: Camel sdAb
B9: AS67190 sdAb (VHH)
VHH: QVQLVESGGGLVQAGGSLRLSCAASGNVFRFNIMGWYRQAPGNQRELVASIDDGGDRSYADSVEGRFTISRENGKKIMYLQMNSLKPEDTAVYYCAAGLGTYLNGRVSMATNYWGQGTQVTVSS
notes: Camel sdAb
B10: AS49226 sdAb (VHH)
VHH: EVQLAESGGGSVQAGGSLRLSCAASGVTFSSTSVAWFRQAPGKEREGVAYIYTGDSSTYYADSVKGRFTIAQDNAKNAVYLQMNSLKPEDTAMYYCAADGFLLNHRSYQYWGQGTQVTVSS
notes: Camel sdAb
B11: AS49889 sdAb (VHH)
VHH: EVQLVESGGGSVQAGGSLRLSCVASGYTWCRYDMSWYRQAPGKEREFVSGFDNDGTTSYADSVKGRFTISQDNDKNTVYLQMNSLKPEDTAMYYCKEDRSRGSLDGRVCPLSYDNWGQGTQVTVSS
notes: Camel sdAb
B12: AS49264 sdAb (VHH)
VHH: EVQLVESGGGSVQAGGSLRLSCAASGYTYSINCMGWFRQAPGKEREGVAVISTGGGRTDYRDSVKGRFTISQDNAKNTVYLQMNSLKPEDTAMYYCAGKTTYPGYGCGLGRSAYNYWGQGTQVTVSS
notes: Camel sdAb
B13: AS49814 sdAb (VHH)
VHH: QIQLVESGGGSVQAGGSLRLSCVASGYIGGHYYMGWFRQAPGKEREGVAAIDIDSDGRTRYAGSVQGRFTISQDNAKNTLHLQMSSLKPEDTGMYYCAVGVGWVPARLTPQAVSYWGKGTLVTVSS
notes: Camel sdAb
B14: AS49902 sdAb (VHH)
VHH: EVQLVESGGGLVQAGGSLRLSCTASGFTFDDYVMGWFRQAPGKEREGVSCISWSGDTTYYADSVKGRFTVSRDNAKNTLYLQMNSLKPEDTAMYYCAADQSLCSLAPPYNYAYWGQGTQVTVSS
notes: Camel sdAb
B15: AS59101 sdAb (VHH)
VHH: AVQLVESGGGLVQPGGSLRLSCAVSGIYYSINLMGWYRQAPGKPRELAASITDSGITNYADSVKGRFTISRDNAKNTVHLQMNNLKPEDTAVYYCKPMGVNWGQGIQVTVSS
notes: Camel sdAb

molecular target: T1, Recombinant human CD33 protein (human, UniProt P20138 18-259); assay: SPR (BIACORE T200), crude sdAb captured via affinity tag, 100 nM human CD33 as analyte
T1 construct: Obtained commercially; also called huCD33
T1 sequence (P20138 18-259 limits assumed): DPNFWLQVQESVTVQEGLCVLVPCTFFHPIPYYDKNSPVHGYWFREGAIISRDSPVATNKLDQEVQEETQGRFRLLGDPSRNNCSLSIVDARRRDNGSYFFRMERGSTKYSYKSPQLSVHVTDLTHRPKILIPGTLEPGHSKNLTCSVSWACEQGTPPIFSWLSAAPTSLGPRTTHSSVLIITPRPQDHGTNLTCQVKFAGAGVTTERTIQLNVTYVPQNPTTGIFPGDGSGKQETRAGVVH
Protocol: The sdAb proteins in the supernatant were analyzed for their ability to bind to CD33 ECD proteins by ELISA and CD33-overexpressing MV4-11 cell lines by FACS. All binders were sequenced and some were subjected to for further characterization including affinity ranking by surface plasmon resonance (SPR) on a BIACORE® T200 instrument. The experiments were carried out as follows: the crude sdAb proteins were captured through an affinity tag onto the sensorchip. High-concentration (100 nM) of human CD33 flowed over the sensorchip surface, and was allowed to bind the antibody fragments. On-rate (kₒₙ) and off-rate (koff) were roughly calculated based on the association and dissociation of one antigen concentration, and were used to estimate the equilibrium dissociation constant (KD).

Binding result, binds:
B1, B2, B3, B4, B5, B6, B7, B8, B9, B10, B11, B12, B13, B14, B15
